Results: the supplement of paper PMC11246515
± gives the standard deviation of the averaged measurements.

Experiment: total protein half-life in vivo (active degradation + dilution); higher = more stable protein
[1] = E. coli NCM3722 delta-clpP delta-lon delta-hslV, growth: N-lim chemostat, doubling time 6 h
[2] = E. coli NCM3722 delta-smpB, growth: N-lim chemostat, doubling time 6 h
[3] = wild type E. coli NCM3722, growth: C-lim chemostat, doubling time 3 h
[4] = wild type E. coli NCM3722, growth: C-lim chemostat, doubling time 6 h
[5] = wild type E. coli NCM3722, growth: C-lim chemostat, doubling time 12 h
[6] = E. coli NCM3722 delta-clpP, growth: N-lim chemostat, doubling time 6 h
[7] = E. coli NCM3722 delta-hslV, growth: N-lim chemostat, doubling time 6 h
[8] = E. coli NCM3722 delta-lon, growth: N-lim chemostat, doubling time 6 h
[9] = wild type E. coli NCM3722, growth: N-lim chemostat, doubling time 6 h
[10] = wild type E. coli NCM3722, growth: N-lim chemostat, doubling time 12 h
[11] = wild type E. coli NCM3722, growth: P-lim chemostat, doubling time 6 h
[12] = wild type E. coli NCM3722, growth: P-lim chemostat, doubling time 12 h

Sequence	total protein half-life in vivo [1] [h]	total protein half-life in vivo [2] [h]	total protein half-life in vivo [3] [h]	total protein half-life in vivo [4] [h]	total protein half-life in vivo [5] [h]	total protein half-life in vivo [6] [h]	total protein half-life in vivo [7] [h]	total protein half-life in vivo [8] [h]	total protein half-life in vivo [9] [h]	total protein half-life in vivo [10] [h]	total protein half-life in vivo [11] [h]	total protein half-life in vivo [12] [h]
MSDMNNPADDNNGAMDDLWAEALSEQKSTSSKSAAETVFQQFGGGDVSGTLQDIDLIMDIPVKLTVELGRTRMTIKELLRLTQGSVVALDGLAGEPLDILINGYLIAQGEVVVVADKYGVRITDIITPSERMRRLSR	5.45 ± 0.45	> 8	2.75 ± 0.5	4.23 ± 0.055	7.08 ± 1.4	–	–	–	–	–	–	–
MSDNAQLTGLCDRFRGFYPVVIDVETAGFNAKTDALLEIAAITLKMDEQGWLMPDTTLHFHVEPFVGANLQPEALAFNGIDPNDPDRGAVSEYEALHEIFKVVRKGIKASGCNRAIMVAHNANFDHSFMMAAAERASLKRNPFHPFATFDTAALAGLALGQTVLSKACQTAGMDFDSTQAHSALYDTERTAVLFCEIVNRWKRLGGWPLSAAEEV	5.4962 ± 0.0014	–	2.54	5.95 ± 0.48	–	5.43 ± 0.51	5.13	6.1	5.89	8.59	5.17	12 ± 0.56
MSDNDTIVAQATPPGRGGVGILRISGFKAREVAETVLGKLPKPRYADYLPFKDADGSVLDQGIALWFPGPNSFTGEDVLELQGHGGPVILDLLLKRILTIPGLRIARPGEFSERAFLNDKLDLAQAEAIADLIDASSEQAARSALNSLQGAFSARVNHLVEALTHLRIYVEAAIDFPDEEIDFLSDGKIEAQLNDVIADLDAVRAEARQGSLLREGMKVVIAGRPNAGKSSLLNALAGREAAIVTDIAGTTRDVLREHIHIDGMPLHIIDTAGLREASDEVERIGIERAWQEIEQADRVLFMVDGTTTDAVDPAEIWPEFIARLPAKLPITVVRNKADITGETLGMSEVNGHALIRLSARTGEGVDVLRNHLKQSMGFDTNMEGGFLARRRHLQALEQAAEHLQQGKAQLLGAWAGELLAEELRLAQQNLSEITGEFTSDDLLGRIFSSFCIGK	5.13 ± 0.69	4.68 ± 0.25	3.43 ± 0.63	5.46 ± 0.16	10.2 ± 5	5.57 ± 0.62	4.91 ± 0.24	5.72 ± 0.4	5.14 ± 0.12	8.32 ± 0.99	5.69 ± 0.32	11.7 ± 0.24
MSDNLPWKTWTPDDLAPPQAEFVPIVEPEETIIEEAEPSLEQQLAQLQMQAHEQGYQAGIAEGRQQGHKQGYQEGLAQGLEQGLAEAKSQQAPIHARMQQLVSEFQTTLDALDSVIASRLMQMALEAARQVIGQTPTVDNSALIKQIQQLLQQEPLFSGKPQLRVHPDDLQRVDDMLGATLSLHGWRLRGDPTLHPGGCKVSADEGDLDASVATRWQELCRLAAPGVV	–	–	2.19 ± 0.17	3.64 ± 0.27	5.33 ± 0.28	–	–	–	–	–	–	–
MSDQIIARVSQSLAKEQSLESLVRQLLEMLEMVTDMESTYLTKVDVEARLQHIMFARNSQKMYIPENFTVSWDYSLCKRAIDENCFFSDEVPDRWGDCIAARNLGITTFLSTPIHLPDGSFYGTLCAASSEKRQWSERAEQVLQLFAGLIAQYIQKEALVEQLREANAALIAQSYTDSLTGLPNRRAIFENLTTLFSLARHLNHKIMIAFIDLDNFKLINDRFGHNSGDLFLIQVGERLNTLQQNGEVIGRLGGDEFLVVSLNNENADISSLRERIQQQIRGEYHLGDVDLYYPGASLGIVEVDPETTDADSALHAADIAMYQEKKHKQKTPFVAHPALHS	–	–	0.233	–	–	–	–	–	–	–	–	–
MSDQQQPPVYKIALGIEYDGSKYYGWQRQNEVRSVQEKLEKALSQVANEPITVFCAGRTDAGVHGTGQVVHFETTALRKDAAWTLGVNANLPGDIAVRWVKTVPDDFHARFSATARRYRYIIYNHRLRPAVLSKGVTHFYEPLDAERMHRAAQCLLGENDFTSFRAVQCQSRTPWRNVMHINVTRHGPYVVVDIKANAFVHHMVRNIVGSLMEVGAHNQPESWIAELLAAKDRTLAAATAKAEGLYLVAVDYPDRYDLPKPPMGPLFLAD	5.48 ± 0.18	5.64 ± 0.47	–	–	11.8 ± 2.3	4.85 ± 0.48	3.92	5.08 ± 0.086	5.31 ± 0.53	8.71 ± 1.2	5.81 ± 0.58	11.6 ± 0.43
MSDTKRNTIGKFGLLSLTFAAVYSFNNVINNNIELGLASAPMFFLATIFYFIPFCLIIAEFVSLNKNSEAGVYAWVKSSLGGRWAFITAYTYWFVNLFFFTSLLPRVIAYASYAFLGYEYIMTPVATTIISMVLFAFSTWVSTNGAKMLGPITSVTSTLMLLLTLSYILLAGTALVGGVQPADAITVDAMIPNFNWAFLGVTTWIFMAAGGAESVAVYVNDVKGGSKSFVKVIILAGIFIGVLYSVSSVLINVFVSSKELKFTGGSVQVFHGMAAYFGLPEALMNRFVGLVSFTAMFGSLLMWTATPVKIFFSEIPEGIFGKKTVELNENGVPARAAWIQFLIVIPLMIIPMLGSNTVQDLMNTIINMTAAASMLPPLFIMLAYLNLRAKLDHLPRDFRMGSRRTGIIVVSMLIAIFAVGFVASTFPTGANILTIIFYNVGGIVIFLGFAWWKYSKYIKGLTAEERHIEATPASNVD	–	–	–	3.83	–	–	–	–	–	–	–	–
MSEALLNAGRQTLMLELQEASRLPERLGDDFVRAANIILHCEGKVVVSGIGKSGHIGKKIAATLASTGTPAFFVHPAEALHGDLGMIESRDVMLFISYSGGAKELDLIIPRLEDKSIALLAMTGKPTSPLGLAAKAVLDISVEREACPMHLAPTSSTVNTLMMGDALAMAVMQARGFNEEDFARSHPAGALGARLLNKVHHLMRRDDAIPQVALTASVMDAMLELSRTGLGLVAVCDAQQQVQGVFTDGDLRRWLVGGGALTTPVNEAMTVGGTTLQSQSRAIDAKEILMKRKITAAPVVDENGKLTGAINLQDFYQAGII	5.02 ± 0.39	4.33 ± 0.28	3.14 ± 0.043	5.34 ± 0.49	9.87 ± 2.3	4.77 ± 0.57	4.52 ± 0.3	4.85 ± 0.39	4.55 ± 0.18	7.014 ± 0.018	5.2 ± 0.36	12.3 ± 0.49
MSEFDAQRVAERIDIVLDILVAGDYHSAIHNLEILKAELLRQVAESTPDIPKAPWEI [A5A614]	> 8	2.71	–	3.77 ± 0.23	–	–	–	–	–	–	3.58	–
MSEFSQTVPELVAWARKNDFSISLPVDRLSFLLAVATLNGERLDGEMSEGELVDAFRHVSDAFEQTSETIGVRANNAINDMVRQRLLNRFTSEQAEGNAIYRLTPLGIGITDYYIRQREFSTLRLSMQLSIVAGELKRAADAAEEGGDEFHWHRNVYAPLKYSVAEIFDSIDLTQRLMDEQQQQVKDDIAQLLNKDWRAAISSCELLLSETSGTLRELQDTLEAAGDKLQANLLRIQDATMTHDDLHFVDRLVFDLQSKLDRIISWGQQSIDLWIGYDRHVHKFIRTAIDMDKNRVFAQRLRQSVQTYFDEPWALTYANADRLLDMRDEEMALRDEEVTGELPEDLEYEEFNEIREQLAAIIEEQLAVYKTRQVPLDLGLVVREYLSQYPRARHFDVARIVIDQAVRLGVAQADFTGLPAKWQPINDYGAKVQAHVIDKY	5.86 ± 0.58	5.246 ± 0.022	3.2 ± 0.06	5.42 ± 0.67	9.64 ± 0.19	6.12 ± 0.39	5.79 ± 0.81	5.07 ± 0.54	5.36 ± 0.55	7.76 ± 0.8	5.7 ± 0.13	8.345 ± 0.032
